# Assay results: patent US20140087995A1 (published 2014)
# Numbered stars: 1 amine (or outer) side, 2 acyl side, 3 side chain; on linkers, the order of the positions; unused ones are H or OH. Bridge positions count the residues as written; N and C are the ends. Side chains are listed from the residue outwards. Ends that are not written are not given here. * marks the point of attachment. C20 diacid = O=C(O)CCCCCCCCCCCCCCCCCCC(=O)*; γGlu = O=C(O)[C@H](CCC(=O)[*:2])N[*:1]; AEEA = NCCOCCOCC(=O)O
# T1: rat calcitonin receptor (rat, UniProt P32214 25-516)
# T1 construct: whole, on cells; Membranes of transiently transfected BHK tk'ts 13 cells; also called rCTR; rat calcitonin (a) receptor
# T1 sequence (looked up): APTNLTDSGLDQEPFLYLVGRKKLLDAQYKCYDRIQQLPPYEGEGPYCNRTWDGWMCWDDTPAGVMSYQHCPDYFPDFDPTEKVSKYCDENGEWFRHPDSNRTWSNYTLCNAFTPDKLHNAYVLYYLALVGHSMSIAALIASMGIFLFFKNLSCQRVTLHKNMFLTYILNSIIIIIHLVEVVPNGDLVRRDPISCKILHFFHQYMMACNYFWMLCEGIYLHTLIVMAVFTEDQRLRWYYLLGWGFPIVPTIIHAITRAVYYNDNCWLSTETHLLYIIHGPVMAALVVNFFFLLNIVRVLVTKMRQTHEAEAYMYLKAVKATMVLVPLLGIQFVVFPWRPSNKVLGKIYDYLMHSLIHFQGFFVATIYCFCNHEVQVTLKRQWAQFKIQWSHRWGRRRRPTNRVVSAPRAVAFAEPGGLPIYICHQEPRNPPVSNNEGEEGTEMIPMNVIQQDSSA
# T2: human calcitonin receptor (human, UniProt P30988 25-474)
# T2 construct: whole, on cells; Membranes of stably transfected cells; also called hCTR; hCT
# T2 sequence (looked up): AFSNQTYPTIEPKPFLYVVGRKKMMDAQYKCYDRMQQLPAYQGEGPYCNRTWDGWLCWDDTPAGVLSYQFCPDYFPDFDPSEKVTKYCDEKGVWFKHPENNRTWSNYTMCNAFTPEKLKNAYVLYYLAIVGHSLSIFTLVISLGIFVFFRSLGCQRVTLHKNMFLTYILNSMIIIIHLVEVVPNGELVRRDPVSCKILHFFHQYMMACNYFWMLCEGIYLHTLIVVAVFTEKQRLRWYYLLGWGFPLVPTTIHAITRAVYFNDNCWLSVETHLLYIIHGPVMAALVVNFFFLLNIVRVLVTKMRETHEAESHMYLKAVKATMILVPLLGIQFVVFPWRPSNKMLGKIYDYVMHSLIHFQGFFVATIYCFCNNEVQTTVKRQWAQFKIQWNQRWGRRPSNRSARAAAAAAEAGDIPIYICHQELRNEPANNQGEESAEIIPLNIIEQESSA
# T3: rat amylin receptor (rat calcitonin receptor + rat RAMP 3) (rat, UniProt P32214 25-516; Q9JJ73 23-147)
# T3 construct: whole, on cells; Membranes of transiently transfected BHK tk'ts 13 cells; also called rAmylin-R; rat amylin 3(a) receptor
# T3 sequence (looked up) 1: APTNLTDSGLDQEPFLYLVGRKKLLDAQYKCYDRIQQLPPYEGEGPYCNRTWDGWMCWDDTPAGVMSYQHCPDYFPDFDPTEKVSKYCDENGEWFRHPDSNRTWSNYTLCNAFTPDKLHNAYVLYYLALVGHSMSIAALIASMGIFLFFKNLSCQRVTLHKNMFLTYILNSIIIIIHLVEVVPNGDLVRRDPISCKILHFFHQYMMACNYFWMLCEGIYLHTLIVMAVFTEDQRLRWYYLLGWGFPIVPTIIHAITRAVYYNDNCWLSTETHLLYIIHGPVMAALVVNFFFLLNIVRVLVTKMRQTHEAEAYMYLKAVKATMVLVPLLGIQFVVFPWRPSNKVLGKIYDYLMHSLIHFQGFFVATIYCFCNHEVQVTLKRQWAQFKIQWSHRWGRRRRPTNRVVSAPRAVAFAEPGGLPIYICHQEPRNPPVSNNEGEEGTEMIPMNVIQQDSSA
# T3 sequence (looked up) 2: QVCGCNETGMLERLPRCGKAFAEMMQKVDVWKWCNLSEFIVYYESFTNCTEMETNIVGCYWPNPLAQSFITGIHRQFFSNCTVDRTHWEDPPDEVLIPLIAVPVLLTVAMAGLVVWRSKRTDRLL
# T4: rat calcitonin receptor (rat, UniProt P32214 25-516)
# T4 construct: whole, on cells; Used as membranes prepared from the transfected cells; also called rCTR; rCT
# T4 sequence (looked up): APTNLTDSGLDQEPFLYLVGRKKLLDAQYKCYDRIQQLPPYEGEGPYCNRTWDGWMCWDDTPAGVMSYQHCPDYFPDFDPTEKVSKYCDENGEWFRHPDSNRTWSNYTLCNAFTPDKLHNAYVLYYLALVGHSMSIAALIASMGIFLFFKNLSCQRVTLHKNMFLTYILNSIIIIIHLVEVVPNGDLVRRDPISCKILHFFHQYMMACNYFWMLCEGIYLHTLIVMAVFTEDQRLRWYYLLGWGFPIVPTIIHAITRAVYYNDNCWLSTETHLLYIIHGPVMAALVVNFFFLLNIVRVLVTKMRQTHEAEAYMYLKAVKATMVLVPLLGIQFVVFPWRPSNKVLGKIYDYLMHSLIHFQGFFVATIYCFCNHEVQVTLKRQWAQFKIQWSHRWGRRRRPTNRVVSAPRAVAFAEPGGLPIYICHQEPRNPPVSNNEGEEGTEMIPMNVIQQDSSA
# T5: human calcitonin receptor (human, UniProt P30988 25-474)
# T5 construct: whole, on cells; Used as membranes prepared from the transfected cells; also called hCTR; hCT
# T5 sequence (looked up): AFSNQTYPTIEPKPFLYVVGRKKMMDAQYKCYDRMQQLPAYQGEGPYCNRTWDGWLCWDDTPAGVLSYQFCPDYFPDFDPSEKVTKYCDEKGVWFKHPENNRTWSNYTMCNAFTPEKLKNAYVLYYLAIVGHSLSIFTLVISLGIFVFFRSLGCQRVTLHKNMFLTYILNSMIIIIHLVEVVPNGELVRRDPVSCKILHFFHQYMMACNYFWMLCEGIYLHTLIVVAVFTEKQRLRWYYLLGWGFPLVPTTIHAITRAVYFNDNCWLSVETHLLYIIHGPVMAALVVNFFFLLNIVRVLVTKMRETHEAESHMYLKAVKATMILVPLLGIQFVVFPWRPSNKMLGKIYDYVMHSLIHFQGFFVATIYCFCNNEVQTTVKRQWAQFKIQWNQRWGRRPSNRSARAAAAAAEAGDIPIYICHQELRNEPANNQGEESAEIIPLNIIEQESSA
# Columns and labels:
# rat calcitonin receptor [1] = target: T1, rat calcitonin receptor; experiment: ratio of IC50 on rat calcitonin receptor to IC50 on rat amylin receptor (reference m40)
# [2] = target: T2, human calcitonin receptor; experiment: ratio of IC50 on human calcitonin receptor to IC50 on human amylin receptor (reference m42), SPA competition
# In short: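 Competition binding by SPA uses membrane preparations (35 ng/μL final) in pH 7.4 Hepes buffer with 1 mM CaCl2 and 5 mM MgCl₂. Incubation lasts 120 min at 25° C, and IC₅₀ comes from one-site fitting.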
# rat calcitonin receptor [3] = target: T1, rat calcitonin receptor; experiment: SPA competition with 125I-calcitonin on membranes of BHK tk'ts 13 cells with rat calcitonin receptor (Assay VIII)
# [4] = target: T3, rat amylin receptor (rat calcitonin …); experiment: SPA competition with 125I-rat amylin on membranes of BHK tk'ts 13 cells with rat calcitonin receptor + rat RAMP3 (Assay VI)
# rat calcitonin receptor [5] = target: T4, rat calcitonin receptor; experiment: SPA competition with 125I-calcitonin, membranes with rat calcitonin receptor (Assay VIII)
# rat calcitonin receptor [6] = target: T4, rat calcitonin receptor; experiment: ratio of binding IC50 at rat calcitonin receptor to IC50 at rat amylin receptor (reference)
# [7] = target: T5, human calcitonin receptor; experiment: ratio of binding IC50 at human calcitonin receptor to IC50 at human amylin receptor (reference)
# Experimental: The resulting pellet was resuspended, homogenized and centrifuged (20.000 rpm, 15 min) in a buffer containing 20 mM Na-HEPES and 0.1 mM EDTA (pH 7.4, buffer 2). The resulting pellet was resuspended in buffer 2 and protein concentration was measured (BCA protein Assay, Pierce). The homogenate was kept cold during the whole procedure. The membranes were kept at −80° C. until use. The assay was performed in a 384 well Optiplate (PerkinElmer) in a total volume of 40 ul. Membranes were mixed with SPA beads. Final concentration of membranes 35 ng/μL final and SPA beads was 0.05 mg/well. Test-compounds were dissolved in DMSO and further diluted in assay buffer (50 mM Hepes, pH 7.4, 1 mM CaCl2, 5 mM MgCl₂, 0.1% OA and 0.02% Tween20). […] The final mixture was incubated with shaking at 400 rpm for 120 min at 25° C. prior to centrifugation (1500 rpm, 10 min). Samples were analyzed on TopCounter™ (Packard). The IC₅₀ was calculated using (one site binding competition analysis) GraphPad Prism5 as a measure of receptor affinity.
# Membranes were prepared in the following way; the cells were rinsed with PBS and incubated with Versene for approximately 5 min before harvesting. The cells were flushed with PBS and the cell-suspension was centrifuged for 5 min at 1000 rpm. Cells were homogenized (Ultrathurrax) in a buffer containing 20 mM Na-HEPES and 10 mM EDTA (pH 7.4) and centrifuged at 20.000 rpm for 15 min. The resulting pellet was resuspended, homogenized and centrifuged (20.000 rpm, 15 min) in a buffer containing 20 mM Na-HEPES and 0.1 mM EDTA (pH 7.4, buffer 2). The resulting pellet was resuspended in buffer 2 and protein concentration was measured (BCA protein Assay, Pierce). The homogenate was kept cold during the whole procedure. The membranes were kept at −80° C. until use. Assay was performed in a 384 well Optiplate (PerkinElmer) in a total volume of 40 ul. Membranes were mixed with SPA beads.
Ratio rCT/rAmylin binding (rat calcitonin receptor [1]),Ratio hCT/hAmylin binding [2],IC50 (rat calcitonin receptor [3]) [nM],IC50 [4] [nM],IC50 (rat calcitonin receptor [5]) [nM],Ratio rCT/rAmylin binding (rat calcitonin receptor [6]),Ratio hCT/hAmylin binding [7],Binder
63.2,13.3,10.4,0.164,,,,"K([γGlu-C20 diacid])CNTATCATQRLAEFLRHSSPNFGAIPSSTNVGPETY-NH2 (disulfide 2-7; N-terminus assumed; SMILES CC[C@H](C)[C@H](NC(=O)[C@H](C)NC(=O)CNC(=O)[C@H](Cc1ccccc1)NC(=O)[C@H](CC(N)=O)NC(=O)[C@@H]1CCCN1C(=O)[C@H](CO)NC(=O)[C@H](CO)NC(=O)[C@H](Cc1c[nH]cn1)NC(=O)[C@H](CCCNC(=N)N)NC(=O)[C@H](CC(C)C)NC(=O)[C@H](Cc1ccccc1)NC(=O)[C@H](CCC(=O)O)NC(=O)[C@H](C)NC(=O)[C@H](CC(C)C)NC(=O)[C@H](CCCNC(=N)N)NC(=O)[C@H](CCC(N)=O)NC(=O)[C@@H](NC(=O)[C@H](C)NC(=O)[C@@H]1CSSC[C@H](NC(=O)[C@@H](N)CCCCNC(=O)CC[C@H](NC(=O)CCCCCCCCCCCCCCCCCCC(=O)O)C(=O)O)C(=O)N[C@@H](CC(N)=O)C(=O)N[C@@H]([C@@H](C)O)C(=O)N[C@@H](C)C(=O)N[C@@H]([C@@H](C)O)C(=O)N1)[C@@H](C)O)C(=O)N1CCC[C@H]1C(=O)N[C@@H](CO)C(=O)N[C@@H](CO)C(=O)N[C@H](C(=O)N[C@@H](CC(N)=O)C(=O)N[C@H](C(=O)NCC(=O)N1CCC[C@H]1C(=O)N[C@@H](CCC(=O)O)C(=O)N[C@H](C(=O)N[C@@H](Cc1ccc(O)cc1)C(N)=O)[C@@H](C)O)C(C)C)[C@@H](C)O, Synthetic acylated analogue of human amylin)"
,,,,46.8,104,65.3,"K([AEEA-γGlu-C20 diacid])CNTATCATQRLAHFLRHSSPNFGAIPSSTNVGSNTY-NH2 (disulfide 2-7; N-terminus assumed; SMILES CC[C@H](C)[C@H](NC(=O)[C@H](C)NC(=O)CNC(=O)[C@H](Cc1ccccc1)NC(=O)[C@H](CC(N)=O)NC(=O)[C@@H]1CCCN1C(=O)[C@H](CO)NC(=O)[C@H](CO)NC(=O)[C@H](Cc1c[nH]cn1)NC(=O)[C@H](CCCNC(=N)N)NC(=O)[C@H](CC(C)C)NC(=O)[C@H](Cc1ccccc1)NC(=O)[C@H](Cc1c[nH]cn1)NC(=O)[C@H](C)NC(=O)[C@H](CC(C)C)NC(=O)[C@H](CCCNC(=N)N)NC(=O)[C@H](CCC(N)=O)NC(=O)[C@@H](NC(=O)[C@H](C)NC(=O)[C@@H]1CSSC[C@H](NC(=O)[C@@H](N)CCCCNC(=O)COCCOCCNC(=O)CC[C@H](NC(=O)CCCCCCCCCCCCCCCCCCC(=O)O)C(=O)O)C(=O)N[C@@H](CC(N)=O)C(=O)N[C@@H]([C@@H](C)O)C(=O)N[C@@H](C)C(=O)N[C@@H]([C@@H](C)O)C(=O)N1)[C@@H](C)O)C(=O)N1CCC[C@H]1C(=O)N[C@@H](CO)C(=O)N[C@@H](CO)C(=O)N[C@H](C(=O)N[C@@H](CC(N)=O)C(=O)N[C@H](C(=O)NCC(=O)N[C@@H](CO)C(=O)N[C@@H](CC(N)=O)C(=O)N[C@H](C(=O)N[C@@H](Cc1ccc(O)cc1)C(N)=O)[C@@H](C)O)C(C)C)[C@@H](C)O, Analogue of human amylin; disulfide and C-terminal amide as told for h-amylin; also called compound 69)"
